{"source": "patent US10577618B2", "about": "“Class of glyphosate resistance genes” (Dow AgroSciences LLC, priority 2012, dated 2020)", "key": {"T1 Arabidopsis": {"tested_on": "T1 Arabidopsis", "test": "Glyphosate tolerance of transformed T1 Arabidopsis, postemergence spray, visual % injury", "format": "in vivo, Arabidopsis thaliana", "excerpt": "Transgenic T1 Arabidopsis plants containing the dgt-28 transgene were sprayed with differing rates of glyphosate. Elevated rates were applied in this study to determine the relative levels of resistance (105, 420, 1,680 or 3,360 g ae/ha). A typical 1× field usage rate of glyphosate is 1120 g ae/ha. The T1 Arabidopsis plants that were used in this study were variable copy number for the dgt-28 transgene. The low copy dgt-28 T1 Arabidopsis plants were self-pollinated and used to produce T2 plants.\nThe Arabidopsis T1 transformants were first selected from the background of untransformed seed using a glufosinate selection scheme. Three flats or 30,000 seed were analyzed for each T1 construct. The T1 plants selected above were molecularly characterized and the high copy number plants were subsequently transplanted to individual pots and sprayed with various rates of commercial glyphosate as previously described. The response of these plants is presented in terms of % visual injury 2 weeks after treatment (WAT). […] An arithmetic mean and standard deviation is presented for each construct used for Arabidopsis transformation. The range in individual response is also indicated in the last column for each rate and transformation. Wild-type, non-transformed Arabidopsis (c.v. Columbia) served as a glyphosate sensitive control.\nT1 plants were sampled and copy number analysis for the dgt-31, dgt-32, and dgt-33 v1 gene were completed. T1 plants were then assigned to various rates of glyphosate so that a range of copies were among each rate. For Arabidopsis, 26.25 g ae/ha glyphosate is an effective dose to distinguish sensitive plants from ones with meaningful levels of resistance. Elevated rates were applied to determine relative levels of resistance (105, 420, 1680, or 3360 g ae/ha).\nAll glyphosate herbicide applications were made by track sprayer in a 187 L/ha spray volume. Glyphosate used was of the commercial Durango dimethylamine salt formulation (480 g ae/L, Dow AgroSciences, LLC). […]"}, "[1]": {"tested_on": "EPSP synthase (DGT enzymes)", "test": "In vitro kinetic characterization of plant and bacterial DGT enzymes (Pi production, malachite green)", "format": "biochemical", "conditions": "for Km: read-out: KM^PEP, Km for phosphoenolpyruvate; for decrease in catalytic efficiency: relative to DGT-28 v1", "method": "Recombinant DGT proteins were overexpressed in Rosetta2™ (DE3) cells (Novagen™, Madison, Wis.) from the constructs described above. A single colony was used to inoculate 50 mL starter cultures of LB containing chloramphenicol (25 μg/mL) and kanamycin (50 μg/mL) which were cultivated overnight at 37° C. The overnight cultures were used to inoculate 1 L of LB containing chloramphenicol (25 μg/mL) and kanamycin (50 μg/mL). The cultures were grown at 37° C. to an O.D.600=0.6 then placed in an ice water bath for 10 minutes. Expression of the target proteins was achieved by addition of IPTG to a final concentration of 500 μM.\nDGT enzymes were purified to homogeneity in one step via immobilized metal affinity chromatography (IMAC) using a 5 mL HisTrap FF crude column. The column was equilibrated in Buffer A and the sample was loaded in the same buffer. The column was then washed with 10 column volumes of Buffer A followed by elution in a 0-100% Buffer B (50 mM HEPES pH 7.5, 200 mM KCl, 2 mM DTT, 1 mM EDTA, 500 mM imidazole, and 5% glycerol) linear gradient over 25 column volumes. Fractions containing target protein, as judged by SDS-PAGE analysis, were concentrated to 2.5 mL using a Millipore ultracentrifugation device equipped with a 10 kDa molecular weight cut-off (MWCO). The purified DGT enzymes were buffer exchanged using PD-10 columns (GE Healthcare) into 50 mM HEPES pH 7.5, 150 mM KCl, 2 mM DTT, and 5% glycerol and subsequently concentrated ˜1 mL. Samples were typically diluted 1:50 and the UV-visible spectrum was recorded from 240-700 nm on a Cary50™ Bio UV-visible spectrophotometer. A theoretical extinction coefficient was then used to calculate the protein concentration based on the absorbance at 280 nm (ExPASy, Geneva, Switzerland).\nFrozen pellets were resuspended in 20-30 mL buffer A (50 mM HEPES pH 7.5, 100 mM KCl, 1 mM EDTA, 5% glycerol, and 1 mM DTT) and 1 tablet of protease inhibitor (Roche Complete). Once the pellet was completely resolubilized 1 mg/mL of lysozyme was added and the sample was mixed at 4° C. for 15-20 minutes. Following the incubation with the lysozyme the sample was transferred to a 50 mL centrifuge tube and placed on ice. The sample was then sonicated for 1 minute intervals followed by 4 minutes of cooling. This step was repeated two more times for a total of three sonication cycles. Cell debris was removed by centrifugation at 16,500 rpm for 45 minutes and the supernatant was loaded into a 50 mL injection loop. The crude lysate was applied to an amylose column, washed for 7 column volumes with buffer A, and eluted in 100% buffer B (Buffer A and 10 mM maltose). Target protein was pooled and concentrated to 2.5 mL using a 30 kDa MWCO centricon. The purified protein was buffer exchanged into 50 mM HEPES pH 7.5, 100 mM KCl, and 5% glycerol using a PD-10 gel filtration column. Protein concentrations were determined via Bradford assay using BSA as a standard. The pure protein was frozen in liquid nitrogen and stored at −80° C.\nThe enzyme activities of wild-type (WT) and mutant DGTs were measured by inorganic phosphate (Pi) production in a modified procedure described by Lanzetta et al. (1979) Anal. Bioch. 100:95-7. Assays were performed in 96-well plate format in a total of 50 μL on a Spectra-Max 190 plate reader (Molecular Devices, Sunnyvale, Calif.). Typical assays contained 50 mM HEPES pH 7.5, 150 mM KCl, 2 mM DTT, and 1 mM S3P. […] Glyphosate was obtained from Sigma as the free acid and was resuspended in ddH2O. Glyphosate was solubilized by addition of KOH until the mixture was at a neutral pH. Assays were initiated by addition of the DGT enzyme at concentrations that varied between 0.01-1 μM. Reactions were terminated by the addition of 235 μL of a 3:1 mixture of malachite green: ammonium molybdate solution. After complete color development (˜1 minute), the absorbance change at 660 nm was recorded and the amount of Pi formed was calculated from a standard curve. […]"}}, "note": "Entries after “also recorded” stand apart in the source; their conditions may differ."}
{"molecule": "DGT-31: Streptomyces Class IV EPSP synthase, GENBANK YP_004922608.1, SEQ ID NO:145 (protein, Streptomyces pratensis ATCC 33331) MTVIDIPGSKSVTARALFLAAAADGTTTLLRPLHSDDTEGFTEGLTRLGYAVVREPDRWHIEGRPSGPAAADAEVHCRDGATTARFLPTLAAAAASGTYRFDASAQMRRRPLAPLTEALRTLGVDLRHDGAEGHHPLTIQASGVKGGGLTLDAGESSQYLTALLMLGPLTAEGLRIEVTELVSAPYVEITLAMMRGFGVEVVREGNTFTVPPGGYRATTYAIEPDASTASYFFAAAALTGREVTVPGLGTGALQGDLRFTEVLRRMDADVRTTSDSTTVRSDGRLAGLTVNMRDISDTMPTLAAIAPYASSPVRIEDVANTRVKECDRLEACAQNLRSMGITVRTGPDWIEIHPGTPRPTEIATHGDHRIVMSFAVAGLRTPGMSYDDPGCVRKTFPRFHEEFAAFVERSSAGE", "values": [{"measurement": "tolerance to glyphosate", "setting": "T1 Arabidopsis", "result": "slight herbicide tolerance"}]}
{"molecule": "DGT-28v1: Class IV EPSP synthase from Streptomyces sviceus ATCC29083, SEQ ID NO:1, native (protein, listed as Streptomyces sviceus) MRGMPALSLPGSKSITARALFLAAAADGVTTLVRPLRSDDTEGFAEGLVRLGYRVGRTPDTWQVDGRPQGPAVAEADVYCRDGATTARFLPTLAAAGHGTYRFDASPQMRRRPLLPLSRALRDLGVDLRHEEAEGHHPLTVRAAGVEGGEVTLDAGQSSQYLTALLLLGPLTRQGLRIRVTDLVSAPYVEITLAMMRAFGVEVAREGDVFVVPPGGYRATTYAIEPDASTASYFFAAAALTPGAEVTVPGLGTGALQGDLGFVDVLRRMGAEVSVGADATTVRGTGELRGLTANMRDISDTMPTLAAIAPFASAPVRIEDVANTRVKECDRLEACAENLRRLGVRVATGPDWIEIHPGPATGAQVTSYGDHRIVMSFAVTGLRVPGISFDDPGCVRKTFPGFHEAFAELRRGIGS", "values": [{"measurement": "tolerant to glyphosate at concentrations", "setting": "[1]", "result": "> 80", "unit": "mM"}, {"measurement": "Km", "setting": "[1]", "result": 91.6, "unit": "µM"}]}
{"molecule": "DGT-32: Streptomyces Class IV EPSP synthase, GENBANK ZP_04696613, SEQ ID NO:68 (protein, Streptomyces roseosporus NRRL 15998) DRWRVQGRPAGPAATEADVYCRDGATTARFLPTLAAAAASGTYRFDASAQMRRRPLAPLTRALTALGVDLRH", "values": [{"measurement": "tolerance to glyphosate", "setting": "T1 Arabidopsis", "result": "significant tolerance; also recorded: robust tolerance"}, {"measurement": "Km", "setting": "[1]", "result": 140, "unit": "µM"}, {"measurement": "decrease in catalytic efficiency", "setting": "[1]", "result": 100, "unit": "fold"}]}
{"molecule": "DGT-33: Streptomyces Class IV EPSP synthase, GENBANK NC_010572, SEQ ID NO:67 (protein, Streptomyces griseus subsp. griseus NBRC 13350) DRWRVEGRPDGPAAPDADVYCRDGATTARFLPTLVAAAASGTYRFDASAQMRRRPLAPLTRALTALGVDLRH", "values": [{"measurement": "tolerance to glyphosate", "setting": "T1 Arabidopsis", "result": "significant tolerance; also recorded: robust tolerance"}, {"measurement": "Km", "setting": "[1]", "result": 114, "unit": "µM"}, {"measurement": "decrease in catalytic efficiency", "setting": "[1]", "result": 100, "unit": "fold"}]}
